The record followed here is patent publication US20090017041A1.

Experiment [1] has as its target monomer-enriched preparation of the Aβ1-42 peptide (Example 16). In words: ELISA, fraction coated at 2.2 µM; assay 2; antibody dilution 1:4 (start 0.5 µg/ml). For orientation: An ELISA detects its analyte on a solid surface through an enzyme-linked reagent.
The target in experiment [2] is oligomer-enriched preparation of the Aβ1-42 peptide (Example 16). The experiment is described as above.
The target in experiment [3] is monomer-enriched preparation of the Aβ1-42 peptide (Example 16). The experiment is described as follows: ELISA, fraction coated at 2.2 µM; assay 1; antibody dilution 1:1 (start 0.5 µg/ml).
Chain of monomer-enriched preparation of the Aβ1-42 peptide (Example 16) (peptide, as listed by the source): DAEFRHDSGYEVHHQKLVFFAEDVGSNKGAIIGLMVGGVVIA
Experiment [4] has as its target oligomer-enriched preparation of the Aβ1-42 peptide (Example 16). Described as above.
The target in experiment [5] is monomer-enriched preparation of the Aβ1-42 peptide (Example 16). In words: ELISA, fraction coated at 2.2 µM; assay 3; antibody dilution 1:128 (start 0.5 µg/ml).
Experiment [6] concerns the target oligomer-enriched preparation of the Aβ1-42 peptide (Example 16). The experiment is described as above.
The target of experiment [7] is low molecular weight (LMW) monomeric preparation of the Aβ1-42 peptide (Example 15) (human). The experiment is described as follows: ELISA, fraction coated at 2 µM; antibody 0.5 µg/ml.
Chain of low molecular weight (LMW) monomeric preparation of the Aβ1-42 peptide (Example 15) (human) (peptide, as listed by the source): as above
Experiment [8] has as its target high molecular weight (HMW) proto-fibrillar (PF) oligomer enriched preparation of the Aβ1-42 peptide (Example 15) (human). In words: ELISA, fraction coated at 2 µM; antibody 0.5 µg/ml.
Experiment [9] deals with monomer-enriched preparation of the Aβ1-42 peptide (Example 16). The experiment is described as follows: ELISA, fraction coated at 2.2 µM; assay 2; antibody dilution 1:32 (start 0.5 µg/ml).
Experiment [10] deals with oligomer-enriched preparation of the Aβ1-42 peptide (Example 16). The description is as above.

Chain of oligomer-enriched preparation of the Aβ1-42 peptide (Example 16) (peptide, as listed by the source): as above
Chain of high molecular weight (HMW) proto-fibrillar (PF) oligomer enriched preparation of the Aβ1-42 peptide (Example 15) (human) (peptide, as listed by the source): as above

For 6E10 control antibody, the O.D. (405 nm) in experiment [1] was found to be 3.29 O.D; in experiment [2], 3.37 O.D; in [3], 3.67 O.D; in [4], 3.36 O.D; in experiment [5], 0.86 O.D; in experiment [6], 0.66 O.D. Besides, the O.D. (405 nm) in [7] turned out to be 2.13 O.D; in [8], 2 O.D; in experiment [9], 1.34 O.D; in experiment [10], 1.3 O.D.
